Data: patent US20040059519A1
“And” between values parts separate entries of the source, which are not always exact repeats. Equal entries are not always repeated.

Columns and labels:
[1] = molecular target: Human chorionic gonadotropin (human) (UniProt P01215); assay: sandwich, MAB602 capture beads, flow cytometry; hCG 2 ng/mL
[2] = molecular target: Human chorionic gonadotropin (human) (UniProt P01215); assay: sandwich, MAB602 capture beads, flow cytometry; hCG 20 ng/mL
[3] = molecular target: Human chorionic gonadotropin (human) (UniProt P01215); assay: multiplex sandwich, MAB602 capture beads; hCG 0 ng/mL, washed
[4] = molecular target: Human chorionic gonadotropin (human) (UniProt P01215); assay: multiplex sandwich, MAB602 capture beads; hCG 1 ng/mL, washed
[5] = molecular target: Human chorionic gonadotropin (human) (UniProt P01215); assay: multiplex sandwich, MAB602 capture beads; hCG 2 ng/mL, washed
[6] = molecular target: Human chorionic gonadotropin (human) (UniProt P01215); assay: multiplex sandwich, MAB602 capture beads; hCG 31 ng/mL, washed
[7] = molecular target: Human chorionic gonadotropin (human) (UniProt P01215); assay: multiplex sandwich, MAB602 capture beads; hCG 31 ng/mL, no wash
[8] = molecular target: Human chorionic gonadotropin (human) (UniProt P01215); assay: multiplex sandwich, MAB602 capture beads; hCG 2000 ng/mL, no wash
[9] = molecular target: Alpha fetoprotein (UniProt P02771); assay: MAB602 capture beads, flow cytometry; AFP 1.0 ng/mL, anti-hCG probe
[10] = molecular target: Human chorionic gonadotropin (human) (UniProt P01215); assay: MAB602 capture beads, flow cytometry; hCG 0.1 ng/mL, anti-hCG probe
[11] = molecular target: Human chorionic gonadotropin (human) (UniProt P01215); assay: bead sandwich, flow cytometry; capture A1 beads, no hCG (background)
[12] = molecular target: Human chorionic gonadotropin (human) (UniProt P01215); assay: MAB602 capture beads, flow cytometry; hCG 10.0 ng/mL, anti-hCG probe
[13] = molecular target: Alpha fetoprotein (UniProt P02771); assay: anti-AFP capture beads, flow cytometry; AFP 1.0 ng/mL, anti-hCG probe
[14] = molecular target: Human chorionic gonadotropin (human) (UniProt P01215); assay: multiplex no-wash sandwich, MAB602 beads; serum Level 1, hCG 22.8 mU/mL
[15] = molecular target: Alpha fetoprotein (UniProt P02771); assay: anti-AFP capture beads, flow cytometry; AFP 1000.0 ng/mL, anti-hCG probe
[16] = molecular target: Alpha fetoprotein (UniProt P02771); assay: multiplex sandwich, S10473 capture beads; AFP 4 ng/mL, washed
[17] = molecular target: Alpha fetoprotein (UniProt P02771); assay: multiplex sandwich, S10473 capture beads; AFP 4 ng/mL, no wash
[18] = molecular target: Alpha fetoprotein (UniProt P02771); assay: multiplex sandwich, S10473 capture beads; AFP 62 ng/mL, washed
[19] = molecular target: Alpha fetoprotein (UniProt P02771); assay: multiplex sandwich, S10473 capture beads; AFP 31 ng/mL, no wash
[20] = molecular target: Alpha fetoprotein (UniProt P02771); assay: multiplex sandwich, S10473 capture beads; AFP 0.5 ng/mL, no wash
[21] = molecular target: Alpha fetoprotein (UniProt P02771); assay: multiplex sandwich, S10473 capture beads; AFP 125 ng/mL, no wash
[22] = molecular target: Alpha fetoprotein (UniProt P02771); assay: multiplex sandwich, S10473 capture beads; AFP 500 ng/mL, no wash
[23] = molecular target: Alpha fetoprotein (UniProt P02771); assay: multiplex sandwich, S10473 capture beads; AFP 0.25 ng/mL, no wash
[24] = molecular target: Human chorionic gonadotropin (human) (UniProt P01215); assay: MAB602 capture beads, flow cytometry; hCG 1.0 ng/mL, anti-AFP probe
[25] = molecular target: Alpha fetoprotein (UniProt P02771); assay: anti-AFP capture beads, flow cytometry; AFP 0.0 ng/mL, anti-AFP probe
[26] = molecular target: Human chorionic gonadotropin (human) (UniProt P01215); assay: anti-AFP capture beads, flow cytometry; hCG 100.0 ng/mL, anti-AFP probe
[27] = molecular target: Alpha fetoprotein (UniProt P02771); assay: multiplex no-wash sandwich, S10473 beads; serum Level 3D, AFP 111.5 U/mL
[28] = molecular target: Peptide 1 …-biotin; assay: multiplex peptide beads, flow cytometry; no free biotin
[29] = molecular target: Peptide 2 …-biotin; assay: as above
[30] = molecular target: Peptide 3 …-biotin; assay: as above
[31] = molecular target: Peptide 4 …-biotin; assay: as above
[32] = molecular target: Peptide 5 …-biotin (human); assay: as above
[33] = molecular target: Peptide 6 …-biotin; assay: as above
[34] = molecular target: Peptide 7 …-biotin; assay: as above
[35] = molecular target: Peptide 8 …-biotin; assay: as above
[36] = molecular target: Peptide 9 …-biotin; assay: as above
[37] = molecular target: Neutravidin (deglycosylated avidin) (UniProt P02701); assay: multiplex, Neutravidin bead 40/50 without peptide, flow cytometry
[38] = molecular target: Neutravidin (deglycosylated avidin) (UniProt P02701); assay: multiplex, Neutravidin bead 40/60 without peptide, flow cytometry
[39] = molecular target: Neutravidin (deglycosylated avidin) (UniProt P02701); assay: single-analyte, Neutravidin bead 40/60 without peptide, flow cytometry
[40] = molecular target: Neutravidin (deglycosylated avidin) (UniProt P02701); assay: single-analyte, Neutravidin bead 40/70 without peptide, flow cytometry
[41] = molecular target: Neutravidin (deglycosylated avidin) (UniProt P02701); assay: single-analyte, Neutravidin bead 70/40 without peptide, flow cytometry
[42] = molecular target: Neutravidin (deglycosylated avidin) (UniProt P02701); assay: single-analyte, Neutravidin bead 70/50 without peptide, flow cytometry
[43] = molecular target: Neutravidin (deglycosylated avidin) (UniProt P02701); assay: single-analyte, Neutravidin bead 70/60 without peptide, flow cytometry

Sequence of UniProt P02701 (P02701 25-152 limits assumed): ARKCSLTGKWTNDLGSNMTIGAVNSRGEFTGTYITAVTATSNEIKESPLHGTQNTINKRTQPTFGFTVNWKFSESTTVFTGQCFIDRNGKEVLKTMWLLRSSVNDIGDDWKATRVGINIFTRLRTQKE
Sequence of UniProt P01215 (P01215 25-116, chain 1 of 2, other chains not shown): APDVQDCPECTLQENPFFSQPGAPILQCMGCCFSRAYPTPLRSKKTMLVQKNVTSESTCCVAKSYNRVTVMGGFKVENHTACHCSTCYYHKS
Sequence of UniProt P02771 (P02771 19-609 limits assumed): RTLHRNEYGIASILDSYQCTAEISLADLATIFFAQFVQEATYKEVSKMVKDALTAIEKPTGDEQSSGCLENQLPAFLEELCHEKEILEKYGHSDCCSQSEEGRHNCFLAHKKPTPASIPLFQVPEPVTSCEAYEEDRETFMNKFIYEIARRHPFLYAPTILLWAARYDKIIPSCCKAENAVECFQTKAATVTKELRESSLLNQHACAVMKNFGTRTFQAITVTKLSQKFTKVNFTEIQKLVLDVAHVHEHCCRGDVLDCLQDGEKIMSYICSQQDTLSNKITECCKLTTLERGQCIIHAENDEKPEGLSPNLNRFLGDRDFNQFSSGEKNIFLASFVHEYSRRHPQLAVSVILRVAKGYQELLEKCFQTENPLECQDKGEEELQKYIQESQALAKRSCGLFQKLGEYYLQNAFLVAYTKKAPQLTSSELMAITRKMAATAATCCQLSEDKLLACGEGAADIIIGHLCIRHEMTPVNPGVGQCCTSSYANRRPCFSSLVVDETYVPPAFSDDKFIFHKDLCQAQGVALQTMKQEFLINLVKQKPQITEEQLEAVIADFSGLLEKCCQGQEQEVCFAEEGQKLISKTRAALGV

With “AB633 affinity purified polyclonal anti-hCG antibody, Bodipy FL-CASE labeled” the MIF of Fm [1] was 1290 and 1380, the MIF of Fm [2] was 8500 and 8660 and the MIF of Fm [3] was 18. It also gave an MIF of Fm [4] of 359, an MIF of Fm [5] of 547 and an MIF of Fm [6] of 3180. It also gave an MIF of Fm [7] of 2510, an MIF of Fm [8] of 491 and an MIF of Fm [9] of 47. The MIF of Fm [10] was 55, the MIF of Fm [11] was 108 and the MIF of Fm [12] was 530. The MIF of Fm [13] was 50, the MIF AVG [14] was 25.7 and the MIF of FL1 [14] was 23 and 27. It also gave an MIF of Fm [15] of 57.

In the case of “M20077 affinity purified polyclonal anti-AFP antibody, Bodipy FL-CASE labeled”, the MIF of Fm [16] is reported as 108, the MIF of Fm [17] is reported as 94 and the MIF of Fm [18] is reported as 814. The MIF of Fm [19] was 639, the MIF of Fm [20] was 24 and the MIF of Fm [21] was 1060. It also gave an MIF of Fm [22] of 643, an MIF of Fm [23] of 17 and an MIF of Fm [24] of 48. The MIF of Fm [25] was 45, the MIF of Fm [26] was 44 and the MIF AVG [27] was 552. The MIF of FL1 [27] was 535 and 562 and 559.

With MAB 384, Bodipy FL-X labeled (antibody) the MIF [28] was 13, the MIF [29] was 17 and the MIF [30] was 20. The MIF [31] was 20, the MIF [32] was 915 and the MIF [33] was 32. For the same substance, the MIF [34] was 19, the MIF [35] was 31 and the MIF [36] was 31. It also gave an MIF of Fm [37] of 27, an MIF of Fm [38] of 26 and an MIF of Fm [39] of 54. It also gave an MIF of Fm [40] of 43, an MIF of Fm [41] of 60 and an MIF of Fm [42] of 66. For the same substance, the MIF of Fm [43] was 70.
